Literature values, collected in paper PMC5669632.

Legend:
His25 = His25 (UniProt position 25, HGSALHWRAAG); test: electrophysiology; settings: not stated for the quoted data (the present recordings are said to follow the same earlier protocols)
Glu118 = Glu118 (UniProt position 118, WFVGREQERRG); test: electrophysiology; settings: not stated for the quoted data (the present recordings are said to follow the same earlier protocols)
[1] = closed channel state (model parameter pKa closed)
[2] = open channel state (model parameter pKa open)

Substance	pKa (His25; [1])	pKa (His25; [2])	pKa (Glu118; [1])	pKa (Glu118; [2])
KcsA potassium channel, E71A (non-inactivating control channel) (Streptomyces lividans; E71A)	4.8 (N/A)	7.6	–	–
KcsA potassium channel, H25R/E71A (Streptomyces lividans; H25R;E71A)	–	–	5.0 (0.1)	6.2 (0.1)
